Data taken from patent publication US7514233.

Target: Recombinant HIV-1 integrase from pRP1012 with the His6 tag removed by thrombin (HIV-1) (UniProt P04585)
Assay: cell-based or functional assay

## His6-tagged Inip76/LEDGF expressed in E. coli from pCP6H75 (pRSETB) (from UniProt O75475 2-530)
  IN protein remaining soluble after 45 minutes incubation at 4° C. and centrifugation at 20000 g: 50%
